The values that follow come from patent publication US20020111475A1.

The target of this experiment is flt3 on murine WWF7 cells. The experiment in a line: cell-based or functional assay.
In the case of “flt3-L mutant F81S (from UniProt P49771 24-179) (ligand)”, the Sp.Ac. MUT / Sp.Ac. WT (WWF7 cell proliferation units/ml per flt3-L ng/ml by ELISA, yeast supernatant) (ratio to wild type) was 0.

On to “flt3-L mutant H8R (from UniProt P49771 24-179) (ligand)”, for which the Sp.Ac. MUT / Sp.Ac. WT (WWF7 cell proliferation units/ml per flt3-L ng/ml by ELISA, yeast supernatant) (ratio to wild type) was found to be 0.

On to “flt3-L mutant H8Y (from UniProt P49771 24-179) (ligand)”, for which the Sp.Ac. MUT / Sp.Ac. WT (WWF7 cell proliferation units/ml per flt3-L ng/ml by ELISA, yeast supernatant) (ratio to wild type) amounted to 1.71.

Consider “flt3-L mutant I11Y (from UniProt P49771 24-179) (ligand)”, for which the Sp.Ac. MUT / Sp.Ac. WT (WWF7 cell proliferation units/ml per flt3-L ng/ml by ELISA, yeast supernatant) (ratio to wild type) came out at 0.

“flt3-L mutant K84E (from UniProt P49771 24-179) (ligand)”: the Sp.Ac. MUT / Sp.Ac. WT (WWF7 cell proliferation units/ml per flt3-L ng/ml by ELISA, yeast supernatant) (ratio to wild type) was found to be 2.88.

Consider “flt3-L mutant K84T (from UniProt P49771 24-235) (ligand)”, for which the Sp.Ac. MUT / Sp.Ac. WT (WWF7 cell proliferation units/ml per flt3-L ng/ml by ELISA, yeast supernatant) (ratio to wild type) worked out at 1.63.

As for “flt3-L mutant K116E (from UniProt P49771 24-179) (ligand)”, the Sp.Ac. MUT / Sp.Ac. WT (WWF7 cell proliferation units/ml per flt3-L ng/ml by ELISA, yeast supernatant) (ratio to wild type) was found to be 0.02.

In the case of “flt3-L mutant L26F (from UniProt P49771 24-235) (ligand)”, the Sp.Ac. MUT / Sp.Ac. WT (WWF7 cell proliferation units/ml per flt3-L ng/ml by ELISA, yeast supernatant) (ratio to wild type) was determined as 0.69.

As for “flt3-L mutant L27P (from UniProt P49771 24-179) (ligand)”, the Sp.Ac. MUT / Sp.Ac. WT (WWF7 cell proliferation units/ml per flt3-L ng/ml by ELISA, yeast supernatant) (ratio to wild type) came to 0.07.

Consider “flt3-L mutant Q122R (from UniProt P49771 24-179) (ligand)”, for which the Sp.Ac. MUT / Sp.Ac. WT (WWF7 cell proliferation units/ml per flt3-L ng/ml by ELISA, yeast supernatant) (ratio to wild type) was 2.16.

As for “flt3-L mutant V34L (from UniProt P49771 24-235) (ligand)”, the Sp.Ac. MUT / Sp.Ac. WT (WWF7 cell proliferation units/ml per flt3-L ng/ml by ELISA, yeast supernatant) (ratio to wild type) is 0.58.

As to “flt3-L mutant W118R (from UniProt P49771 24-179) (ligand)”, the Sp.Ac. MUT / Sp.Ac. WT (WWF7 cell proliferation units/ml per flt3-L ng/ml by ELISA, yeast supernatant) (ratio to wild type) turned out to be 2.19.

Turning to “wild type flt3-L (yeast-derived recombinant human flt3 Ligand) (from UniProt P49771 24-179)”, the Sp.Ac. MUT / Sp.Ac. WT (WWF7 cell proliferation units/ml per flt3-L ng/ml by ELISA, yeast supernatant) (ratio to wild type) is 1 and the specific activity of WT protein (WWF7 cell proliferation, yeast supernatant), averaged over 11 independent assays worked out at 0.95 units/ng.
